In the nanobody polyreactivity screen of Harvey et al. (2022):

Experiment: yeast display, Sf9 membrane polyspecificity reagent, FACS + sequencing; frameworks hold sequencing errors
Procedure, shortened: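 In a synthetic yeast display library (Saccharomyces cerevisiae BJ5465), nanobody expression was induced with galactose for 36–48 hours. FACS gates were set low and high (top ~1%) using anti-HA fluorescence for expression and streptavidin fluorescence for binding of the Sf9 membrane reagent. Each polyreactivity label is drawn from the gate of origin.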

Sequence	polyreactivity (PSR sort gate)
QFQLVESGGGLVQAGGSLRLSCAASGSTFKYYAKGWYRQAPGKERELVAAISARTGSTYYADSVKGRFTISRDNEKNTVYLQMNILKPEDTAVYYCNKLTWRGEVDYWGQGTQVTESS	high polyreactivity
QVQLVESGGGLVQAGGSLRLSCAASGSIFYQNAMGWYRQAPGKERELVAAITWRSGSTYYADSVKGRFTISRDNAKNTVDLQMNSLKPEDTAVYYCAADLLISPEFYYWGQGTQVTVSS	high polyreactivity
QVQLVESGGGLVRAGGSLRLSCAASGRIFHGNAMGWYRQAPGKERELVAAITWGGTRTYYADSVKGRFTISRDNAKNTVYLQMNSLKPEDTAVYYCAKAGTGFYNSWWEDYWGQGTQVTVSS	low polyreactivity
QVQLVESGGGLVQAGGSLRLSCAASGFIFYTNAMAWYRQAPGNERQLVATLTTSGGRTYYADSVKGRFTISRDNAKNSVYLQMNSLKPEDTAVYYCATRYVVIEYDYWGQGTEVTVSS	low polyreactivity
QVQLVESGGGLVQAGGSLRLSCAASGRNFFTYAMGWYRQAPGKERELVASITGSGGSTYYADSVKGRFTISRDNAKYTVYLQMNSLKPEDTAVYYCAAALFRRQLYRKFYYWGQGTQVTVSS	low polyreactivity
QVHLVESGGGLVQAGGSLRLSCAASGSIFIYNAMGWYRQAPGKERELVAAISWSGDSTYYADSVKGRFTISRDNAKNTVYLQMNSLKPEDTAVYYCNAKPSRKWGRGTGKQYDYWGQGTQVTVSS	high polyreactivity
QVQLVESGGGLVQAGGSLRLSCAASGRTFGRYVMGWYRQAPGKERELVAAIRSRGGSTYYADSVKGRFTISRDNAKNTVYLQMNSLKPEDTAVYYCNAVDRKPYRTYDYWGQGTQVTVSS	high polyreactivity
QVQLVESGGGLVQAGGSLRLSCAASVIIFSYNAMGWYRQAPGKERELVAAISYSGGSTYYADSVKGRFTISRDNAKNTVYLQMNSLKPEDTAVYYCAAEKYLGELDYWGQGTQVTVSS	low polyreactivity
QVQLVESGGGLVQAGGSLRLSCAASGSIFGTNAMGWYRQAPGKEREMVAAISLSTGSTYYADSVKGRFTISRDKAKNTVYLQMNSLKPEDTAVYSCAAYYVTPIYYYLGQGTQVTVSS	low polyreactivity
QVQLVESGGGLVQAGGSLRLSCADSGNTFYANAMGWYRQAPGKEREFVASITRSGGSTYYADSVKGRFTISRDNAKNTVYLQMNSLKPEVTAVYYCAADSWFKYDYWGQGTQVTVSS	low polyreactivity
QVQLVESGGGLVQAGGSLRLSCAASGSIFVGFARGWYRQAPGKERELVAAISWSGDSTYYADSVKGRVTISRDNAKKTVYLQLNSLKPEDTAVYYCAVDYAEIGPRREVEYDYWGQGTQVTVSS	low polyreactivity
QVQLVASGGGLVQAGGSLRLSCAASGRTFKYNTMGWYRQAPGKERELVAVISRSGGRTYYADSVKGRFTISRDNAKNTVYLQMNSLKPEDTAVYYCAKGIPYADPQSAYDDYWGQGTQVTVSS	high polyreactivity
HVQLVESGGGLVQAGGSLRLSCAASGSIFFRNTMGWTRQAPGKEREKVAAITRGGGRTYYADSVKGRFTISRDNAKNTVYLQMNSLQPEDTAVYYCNTADYHGRWAFAWYGDYWGQGTQVTVSS	high polyreactivity
QVQLVESGGGLVQAGGSLRISCAASGSTFQYYAMGWYRPAPGKETELVAAISDRDGGTFYADSVKGRFTISRDNAKNTVYLQMNSLKPEDTAVYYCANDAVGFRLDDNGYWGQGTQVTVSS	low polyreactivity
QVQLVESGGGLDQAGGSLRLTSAASGSTFYRNAMGWYRQAPGKERELVAAITIRGGSTSFADSVKGRFTISRDNAKNTVYLQMNSLKPEDTAVYYCNADPRAEPGDWSYEMDYWGQGTQVTVSS	low polyreactivity
QVQLVESGGGLVQAGGSLRLSCAASGFTFQYYPMGWYRQAPGKERELVAAISWSGGSTNYADSVKGRFTISRDNAKNTVYLQMNSLKPEDTAVYYCNAVHYYVEYDYWGQGTQVTVSS	high polyreactivity
QVKLVESGGGLVQAGGRLRLSCAASGSIFLLYPMGWYRQAPGKERELVAAISSGGSTYADSVKGRFTISRDNAKNTVYLLLNSLKPADTAVYYGAKVGGWYDPYTYGYSEYGYWGNGTQVTVSS	low polyreactivity
QVQLVESGGGLVQAGGSLRLSCAASGRTFYRYGMGWYRQAPGKEREFVAAITRSGDSTYADSVKGRFTISRDNAKNTVYLQMNSLKPEDTAVYYCAKVFLRQYAYRYYYWGQGTQVTVSS	high polyreactivity
QVQLVESGGGLVKAGGSLRLSCAASGFIFYIYAMGWYRQAPGKERELVAAITSGGSTYYADSVKGRFTISRDNAKNTVYLQMNSLKPEDTAVYYCAAESYYGYDYWGQGTQVTVSS	low polyreactivity
QVQLQESGGGLVQAGGSLRLSCAASGSISRYYDMGWYRQAPGKEREFVAGISGGAITYYADSVKGRFTISRDNAKNTVYLQMNSLKPEDTAVYYCAADPGVYQYHSYWGQGTQVTVSS	low polyreactivity
QVQRVESGGALVQAGGSLRLSCAASGSIIGINAMGWYRPAPGKERELVAAINGGGSTYYADSVKGRFTISRDNAKNTVYLQMHSLKPEDTAVYYCAAEWGTSWYDYRGQGTQVTVSS	low polyreactivity
QVQLVESGRRLVQAGGSLRLSCAASGRTFGFYAMGWYRQAPGKERELVAGITWSGGSTYYADSVKGRFTISRDNAKNTVYLQMNSLKPEDTAVYYCAADVWWYHYLLFDSWGQGTQVTVSS	low polyreactivity

Sequence	polyreactivity (PSR sort gate)
QVQLVESAGGLVQAGGSLRLSCAASGSIFRLNALGWSRQQPGQVRELVAAITWSDSSTYYADSVKGRFTISRDTAKNTVYLQMNSLKPEDTAVSYCAGDPQSYKYDYWGQGTQVTVSS	low polyreactivity
QVQLVESGGGLVQAGGSLRLSCAASGSTYGYAMGWYRQAPGKEMKLVARITWRGGSTSYADSVKGRFTITRDNAKNTVYLQMNSLKPEDTAVYYCADGFYFQVYTYVRKRYYYWGQGTQVTVSS	high polyreactivity
QVQLVETGGGLDQAGGSLRLRCAASGSIFLIYGMGWYRQAPGKERELDAAITARCGSTYYADSVKGRFTISRDNAKNTVYLLMNSLKPEDTAVYYCAADEYEALGKFQPYQFDYWGQGTQVTVSS	low polyreactivity
QVQLVESGGGLVQAGGSLRLSCAASGRIFTINAMGWYRQAPGKDRELVAAITGSAASTYYADSVKGRFTISRDNAKNTVYLQMYSLKPEDTAVYYSNARPAGRGYNYWGQGTQVTVSS	high polyreactivity
QVQLVESGGGLVQAGGSLRLSCAASGSTFDPYAMGWYRQAPGKERELVAAITSGGGTKYADSVKGRFTISRDNAKNTVYLQMNSLKPEDTAVYYCAADYFDSSYQPTDSILYEYWGQGTQVTVSS	low polyreactivity
QVQLVESGGGLVQAGGSLRLSCAASGRTFYIYAMGWYRQAPGKERELVAAISWGSGSTYYADSVKGRFTISRDNAKNTVYLQMNSLKPEDTAVYYCAAEYAYPSEWTYDYWRQGTQVTVSS	low polyreactivity
QVQLGESGGGLVQAGGSLRLSCAASGFTFVHNAMGWYRQAPGKERELVAAISSSGGRTYYADSVKGRFTISRDNAKNTVYLQMNSLKPDDTAVYYCATVNRYGPSYGYWGQGTHVTVSS	high polyreactivity
QVQLVESGGGLVQAGGSLRLSCAASGYTFVYNAMGWYRQAPGKERELVAAITWGGAGTYYADSVKGRFTISRDNAKNTVYLQMNSLKPEDTAVYYCAAPSPRSSAYTYRGDYWGQGTQVTVSS	low polyreactivity
QVQLVESGGGLVQAGGSLRLSCAASGLTFYIYAMGWYSQAPGKERELVAAVSNGGGNTYYADSVKGRCTISRDNAKNTVYLQMNSLKPEDTAVYYCAAKNDYVYPINPLYYYWGQGTQVTVSS	high polyreactivity
QVQLVESGGGLVQAGGSLRLSCAASGFTFHNYAMGWYRQAPGKEREFVAAITRNTASTYYADSVKGRFTISRDNAKNTVYLQMNSLKPEDTAVYYCAATDKKHRTAYDSWGQGTQVTVSS	low polyreactivity
QVQLVESGGGLVQAGGSLRLSCAASGSTFTSYAMGWYRQAPGKERELVAAINYSGGSTYYADSVKGRFTISRDNAKNTVYLQMNSLKPEDTAVYYCAADGYIRQYVTYYYWGQGTQVTVSS	low polyreactivity
QVQLVVSGGGLVQAGGSLRLSCAASGSTVVTYAMGWYRQAPGKERELVAAISRSGTSTYYADSVKGRYTISRDNAKYTVYLHLPSRKPEDTAVYDCAAYGPRVNGEIGREYYYWGQGTQVTVSS	low polyreactivity
QVQLVESGRGLVQAGGSLPLSCSASGSIFAYYTMGWYRQAPGKERDLVAAISETGGSTYYADSVKGRFTISRDIAKNTVYLQMNSLKPEDTAVYYCNADKYYYYTGQEYYPQYGYWGQGTQVSVSS	low polyreactivity
QVQLVESGGGLVQAGGSLRLICAGSGSNFSYYAMGWYRQAPGKERELVAAITWSGGTTSYADSVKGRFTISRDNAKNTVYLQMNSLKPEDSAVNYFARSIYVVSAQYDYWGQGTQVTVSS	low polyreactivity
QVQLVESGGGLVQAGGSLRLSCAASGRIFGPYAMGWYRQAPGKERELGASISGGGSTNYADSVKGRFTISRDNAKNTVYLPMNSVKPEDTAVYYCAADVYYQYWGWWPYDYWGQGTQVTVSS	low polyreactivity
QVQLVESGGGLVQAGGSLRLSCAASGFIFHYNAMGWYRQAPGKERELVAAITSGDSTDYADSVKGRFTISRDNAKNTVYLQMNSLKPEDTAVYYCAAYHREGRRDDYWGQGTQVTVSS	low polyreactivity
QVQLVESGGGLVQAGGSLRLSCAASGITLGYYVMGCYRPAPGKERELVAAISSSGGRTYYADSVKGRFTISRDTAKNTVYLQMNCLKPEDTAVYYCAADVGRGIYDYWGQGNQVTVSS	low polyreactivity
QVQLVESGGGLVQAGGSLRLSCAASGRIFGYYAMGWYRQAPGKERELVASIRRGTRTNYADSVKGRFTISRDNAKNTVYLQMNSLKPEDTAVYYCAATRFQFTTTPWYDYWGQGTQVTVSS	high polyreactivity
QVQLVDSGGGLDQAGGSLRLSCAASGSNLRLKAMGWYRQAPGKERELVADITRAGSTYYADSVKGRFTISRDNAKNTVYLQMNSLKPEDTAVYYCAADAYTGQIPYYYFEHYYWGHGTQVTVSS	high polyreactivity
QVQLVESGPGLVQAGGSLRLSCASSGFIFRNYPMGWYRHAPGKERELVASISRGTSTNYADSVKGRFTISRDNAKNTVYLQRNSLKPEDTAVYYCNKRFYYHPFDYWGQGTQVTVSS	high polyreactivity
QVQLVESGGGLVQAGGSLRLSCAASGITFDLYDMGSYRQAPGKERELVAAITDADSTYYADSVKGRFTISRDNAKNTVLLQMNSLKPEDTAVYYCAATSYSHTKIRYDYWVQGTQVTVSS	low polyreactivity
